Assay results: publication PMC9027083

Target: recombinant MBP-EDIII of DENV2 (Dengue virus 2 (strain Thailand/16681/84))
Assay: SPR

Kd | koff | kon | Substance
12.3 nM | 0.00274 s⁻¹ | 222000 M⁻¹ s⁻¹ | 1A1D-2 Fab A54E-Y105R double mutant
41.9 nM | 0.00822 s⁻¹ | 197000 M⁻¹ s⁻¹ | 1A1D-2 Fab A54E.H
203 nM | 0.0195 s⁻¹ | 96200 M⁻¹ s⁻¹ | 1A1D-2 Fab Y105R.H
